Reference: the supplement of paper PMC10724198
± gives the standard deviation of the averaged measurements.

What was measured:
Saccharomyces cerevisiae [1] = test: protein stability index of tFT-peptide fusion in wild type (PSI (0-1 scale)); higher = more stable (slower turnover); conditions: genetic background: wild type
Procedure: (§1)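 MPS profiling in S. cerevisiae of two library types built from selected 12-aa C-degron peptides (IN1, IN2, LN1, LN3, VN2, R1-R5, W1-W3, Atg1 and Rpa12 C-termini): saturation mutagenesis libraries and C-terminal +1 capping libraries (13 aa). Each peptide is fused to the C-terminus of a sfGFP-mCherry timer, after a GGGS linker. Cells are FACS-sorted into 8 mCherry/sfGFP bins and sequenced. PSI runs from 0 (unstable) to 1 (stable), measured once in wild type and in the das1Δ or doa10Δ background.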

Saccharomyces cerevisiae [2] = test: protein stability index of tFT-peptide fusion in deletion strain of DAS1 (PSI (0-1 scale)); higher = more stable (slower turnover)
Procedure: as §1

Saccharomyces cerevisiae [3] = test: protein stability index of tFT-peptide fusion (C-terminal peptide) (PSI (0-1 scale)); higher = more stable (slower turnover); conditions: temperature: 30 C
Procedure: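 MPS profiling in S. cerevisiae of the yeast C-terminome library: the last 12 aa of each annotated ORF are fused to the C-terminus of a sfGFP-mCherry timer, after a GGGS linker. Cells are FACS-sorted into 8 mCherry/sfGFP bins and deep-sequenced. PSI runs from 0 (unstable) to 1 (stable); wild type and das1Δ backgrounds, two technical replicates each.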

[4] = genetic background: das1 deletion
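Throughout, for protein stability index of tFT-peptide fusion in deletion strain of DAS1: PSI is a weighted mean of each variant's read distribution over the sorted stability bins, computed only for variants having over 10 reads in total.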
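Throughout, for protein stability index of tFT-peptide fusion in wild type: PSI derived as read-weighted mean over the 8 sorting bins, only variants exceeding 10 total reads kept, mCherry placed adjacent to the peptide and sfGFP distal.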

Row | Sequence | protein stability index (Saccharomyces cerevisiae [1]) | protein stability index (Saccharomyces cerevisiae [2]) | protein stability index (Saccharomyces cerevisiae [3]; [4]) | protein stability index (Saccharomyces cerevisiae [3]; genetic background: wild type)
1 | FSMRWTFRGWVN | 0.313 | 0.605 |  | 
2 | FSMRWTFRYIVN | 0.202 | 0.475 |  | 
3 | FSMRWTFRYWHN | 0.149 | 0.686 |  | 
4 | FSMRWTFRYWVNF | 0.076 | 0.523 |  | 
5 | FSMRWTFRYWVNH | 0.106 | 0.559 |  | 
6 | FSMRWTFRYWVNK | 0.522 | 0.532 |  | 
7 | FSMRWTFRYWVNR | 0.559 | 0.562 |  | 
8 | FSMRWTFRYWVNS | 0.194 | 0.542 |  | 
9 | FSMRWTFRYWVNT | 0.318 | 0.539 |  | 
10 | FSMRWTPRYWVN | 0.0631 | 0.59 |  | 
11 | FSMRWTVRYWVN | 0.0513 | 0.454 |  | 
12 | FSMYWTFRYWVN | 0.0583 | 0.399 |  | 
13 | FSVRWTFRYWVN | 0.0298 | 0.419 |  | 
14 | GRGAVGGWRLVG | 0.19 | 0.671 |  | 
15 | IKHKKGQKQKIN | 0.109 | 0.608 |  | 
16 | ITSCGYKFRTNN | 0.208 | 0.674 |  | 
17 | KDHKKGQKQKIN | 0.0956 | 0.604 |  | 
18 | KKCKKGQKQKIN | 0.102 | 0.593 |  | 
19 | KKHKKEQKQKIN | 0.0895 | 0.678 |  | 
20 | KKHKKGQKFKIN | 0.158 | 0.572 |  | 
21 | KKHKKGQKNKIN | 0.096 | 0.596 |  | 
22 | KKHKKGQKQAIN | 0.57 | 0.6 |  | 
23 | KKHKKGQKQKEN | 0.57 | 0.82 |  | 
24 | KKHKKGQKQKING | 0.293 | 0.653 |  | 
25 | VTFLVFANLRLW [YBR223W-A C-terminal 12 aa] |  |  | 0.566 ± 0.013 | 0.575 ± 0.027

Row | Sequence | protein stability index (Saccharomyces cerevisiae [1]) | protein stability index (Saccharomyces cerevisiae [2]) | protein stability index (Saccharomyces cerevisiae [3]; [4]) | protein stability index (Saccharomyces cerevisiae [3]; genetic background: wild type)
26 | VVCFVSYQKLSS [OPI9 C-terminal 12 aa] |  |  | 0.635 ± 0.011 | 0.168 ± 0.026
27 | VVEALRDAVGDV [NBP35 C-terminal 12 aa] |  |  | 0.706 ± 0.014 | 0.696 ± 0.02
28 | VVVVPSVVETRK [SSO2 C-terminal 12 aa] |  |  | 0.681 ± 0.031 | 0.668 ± 0.026
29 | VWADILNKLGKD [ADK1 C-terminal 12 aa] |  |  | 0.704 ± 0.013 | 0.719 ± 0.025
30 | VYALSIKRSKLT [EPT1 C-terminal 12 aa] |  |  | 0.6803 ± 0.0053 | 0.208 ± 0.0051
31 | VYELVDAEALFS [YDR131C C-terminal 12 aa] |  |  | 0.745 ± 0.02 | 0.682 ± 0.012
32 | WAVGGVELTTDI [GCN1 C-terminal 12 aa] |  |  | 0.76 ± 0.021 | 0.705 ± 0.026
33 | WDGNLFVWNGLG [PEX7 C-terminal 12 aa] |  |  | 0.7335 ± 0.0029 | 0.4319 ± 0.0013
34 | WKKDNKIQVVKN [GIM4 C-terminal 12 aa] |  |  | 0.725 ± 0.026 | 0.663 ± 0.019
35 | WPRVASNSGVVV [RPL23A C-terminal 12 aa] |  |  | 0.7042 ± 0.0044 | 0.679 ± 0.018
36 | WTALVVNILGRF [CWH41 C-terminal 12 aa] |  |  | 0.634 ± 0.012 | 0.634 ± 0.011
37 | YAELAERKKQEN [COX9 C-terminal 12 aa] |  |  | 0.6916 ± 0.0031 | 0.6914 ± 0.0022
38 | YAGENFHHGDKL [ENO2 C-terminal 12 aa] |  |  | 0.6954 ± 0.003 | 0.749 ± 0.034
39 | YCIYQILILVKH [YCL065W C-terminal 12 aa] |  |  | 0.149 ± 0.019 | 0.171 ± 0.013
40 | YDEDEGSDYDFI [SUP45 C-terminal 12 aa] |  |  | 0.6992 ± 0.0034 | 0.684 ± 0.012
41 | YDENSKPKGTKE [FUN30 C-terminal 12 aa] |  |  | 0.6948 ± 0.0051 | 0.704 ± 0.016
42 | YEAKLSKRILRD [SCM3 C-terminal 12 aa] |  |  | 0.7215 ± 0.0071 | 0.723 ± 0.0073
43 | YFVNNIIVRIQS [YKL118W C-terminal 12 aa] |  |  | 0.559 ± 0.009 | 0.329 ± 0.028
44 | YGVPDAELKIVG [DGA1 C-terminal 12 aa] |  |  | 0.719 ± 0.02 | 0.672 ± 0.019
45 | YHLFYMKLQKKI [SPE2 C-terminal 12 aa] |  |  | 0.6977 ± 0.0069 | 0.187 ± 0.013
46 | YKELKDFIFAEK [GUK1 C-terminal 12 aa] |  |  | 0.692 ± 0.0077 | 0.727 ± 0.035
47 | YKELVKKIESKN [CIT1 C-terminal 12 aa] |  |  | 0.7257 ± 0.0054 | 0.7078 ± 0.0025
48 | YNKLKGAGHKKE [PAI3 C-terminal 12 aa] |  |  | 0.6777 ± 0.0045 | 0.645 ± 0.0076
49 | YNLKNDILTNLE [SWI1 C-terminal 12 aa] |  |  | 0.73 ± 0.021 | 0.651 ± 0.044
50 | YVIVFFVYDSLL [YOL046C C-terminal 12 aa] |  |  | 0.238 ± 0.0075 | 0.283 ± 0.015
